Assay results published in US20150359847A1, “METHOD AND COMPOSITION FOR CONFERRING NEUROPROTECTION” (BLOOD SYSTEMS RESEARCH INSTITUTE, priority 2014, published 2015).

Key:
MMP-2 [1] = molecular target: MMP-2 (UniProt P08253); test: cell-based or functional assay
MMP-9 [2] = molecular target: T1, MMP-9 (Homo sapiens, UniProt P14780); test: cell-based or functional assay
Target sequence in this assay (P14780 107-707 limits assumed): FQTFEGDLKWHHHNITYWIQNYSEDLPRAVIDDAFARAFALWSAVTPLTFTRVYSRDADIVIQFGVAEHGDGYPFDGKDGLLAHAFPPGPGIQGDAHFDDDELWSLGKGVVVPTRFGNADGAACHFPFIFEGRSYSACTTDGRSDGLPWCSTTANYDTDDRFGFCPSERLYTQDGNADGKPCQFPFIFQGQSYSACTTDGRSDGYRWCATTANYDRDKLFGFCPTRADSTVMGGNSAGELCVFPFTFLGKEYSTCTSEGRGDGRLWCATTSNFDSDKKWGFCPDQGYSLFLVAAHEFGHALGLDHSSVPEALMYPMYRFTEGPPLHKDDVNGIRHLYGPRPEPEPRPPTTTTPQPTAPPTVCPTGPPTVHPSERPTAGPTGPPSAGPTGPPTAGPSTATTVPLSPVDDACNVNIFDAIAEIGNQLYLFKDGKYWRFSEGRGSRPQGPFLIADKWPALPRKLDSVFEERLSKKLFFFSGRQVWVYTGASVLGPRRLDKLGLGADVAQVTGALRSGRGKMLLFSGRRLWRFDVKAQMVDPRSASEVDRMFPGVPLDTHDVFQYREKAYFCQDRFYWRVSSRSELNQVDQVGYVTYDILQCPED

[3] = test system: phospho-AKT(Ser473) in SH-SY5Y cells; test: Akt (Ser473) phosphorylation in differentiated SH-SY5Y cells (antibody array, western blot, Phosflow); assay type: cell-based, human
Procedure: SH-SY5Y cells were obtained from ATCC (Cat# CRL-2266, Manassas, Va.) and were cultured in DMEM and 10% FBS up to passage 10. For differentiation of SH-SY5Y cells into a neuronal phenotype, cells were first plated in DMEEM+10% FBS for 24 hrs before exchanging media in DMEM+1% FBS 10 μM retinoic acid. Differentiation was performed for 3 days before experimentation. Hippocampal neurons were prepared according to the protocol by Beaudoin et al. (Nature Protocols 2012; 7(9):1741-1754) with minor modifications. In brief, after trypsin digestion of hippocampi isolated from P1 mouse pups single cell suspensions was created by trituration and plated onto Biocoat™ poly-D-lysine coated 12-well plates (Cat#354470, BD Biosciences, San Jose, Calif.). 2 pups were used per well and cell suspensions were incubated for 10 minutes per well for a total of 6 wells. The serial incubation allowed for variation in cell densities applicable to different experiments but also contributed to the reduction in non-neuronal cells. Typically wells 1-2 were pooled for western blotting and wells 4-5 were used for imaging following treatments. After the initial plating cells were incubated for 2 hrs before media was completely exchanged for maintenance media that was supplemented with 1 μM of the anti-mitotic cytosine arabinoside in order to further reduce non-neuronal cells. For western blot, cells were cultured for 7 days before experimentation. Half of maintenance media was exchanged on day 2 and day 5. For morphology experiments, treatments were initiated upon the introduction of maintenance media and was renewed 48 hrs later for a further 24 hrs of treatment. Experiments were terminated by fixation for 20 minutes with 4% paraformaldehyde after which cells were stored at 4° C. in PBS prior to staining protocols.
(§1) Pathscan Antibody™ array kits were purchased from Cell Signaling Technologies (Danvers, Mass.). PathScan® RTK signaling antibody array kit (Fluorescent Readout, Cat#7949) and PathScan™ Akt signaling antibody array kit (Fluorescent Readout, Cat#9700) were performed as per manufacturer's instructions. Imaging was performed on a LI-COR Odyssey™ infrared scanner and pixel densities measured by in house LI-COR Image™ suite software.
After experimentation, SH-SY5Y cells were detached from culture ware via trypsin digestion and rapidly mixed with an equal volume of BD cytofix fixation buffer (Cat#554655. BD Biosciences, San Jose, Calif.). After wash steps with PBS cells were permeabilized with BD phosflow Perm Buffer III (Cat#558050. BD Biosciences, San Jose, Calif.) and incubated on ice for 30 mins. After washing in BD stain buffer (Cat#554657. BD Biosciences, San Jose, Calif.) cells were counted and 1×10^6 cells were used antibody incubation. Negative IgG compensation control was obtained using ABC control beads (Cat# A10344. Life Technologies, Grand Island, N.Y.). Antibody incubations were conducted for 30 mins at RT in the dark. Following wash steps the volume was adjusted to 500 μl and results obtained using and LSR II flow cytometer and analyzed using Flowjo™ cytometric analytical software version 8.8.7.
(§2) Cell lysates for western blotting were prepared with RIPA buffer (Cat#89900. Thermofisher Scientific, Rockford, Ill.) supplemented with phosphatase inhibitor cocktail 2 (Cat# P5726. Sigma, St Louis, Mo.), phosphatase inhibitor cocktail 3 (Cat# P0044. Sigma, St Louis, Mo.) and complete protease inhibitor (Cat#1862209. Thermofisher Scientific, Rockford, Ill.). Complete homogenization was ensured by brief sonication using a Branson Sonifier 150, (Branson Ultrasonics Corporation, Danbury, Conn.). Protein content was quantified with a Pierce BCA protein assay kit per manufacturer's instructions (Cat#23225. Thermofisher Scientific, Rockford, Ill.).
(§3) Lysates was analyzed in conjuncture with the LI-COR Odyssey™ infra-red imaging system. […]

[4] = test system: S6 Ribosomal Protein (S235/236) in SH-SY5Y cells; test: S6 Ribosomal Protein (S235/236) phosphorylation in SH-SY5Y cells; assay type: cell-based, human; conditions: 10 μM GM6001, 15 minutes
Procedure: (§4) SH-SY5Y cells were obtained from ATCC (Cat# CRL-2266, Manassas, Va.) and were cultured in DMEM and 10% FBS up to passage 10. For differentiation of SH-SY5Y cells into a neuronal phenotype, cells were first plated in DMEEM+10% FBS for 24 hrs before exchanging media in DMEM+1% FBS 10 μM retinoic acid. Differentiation was performed for 3 days before experimentation. Hippocampal neurons were prepared according to the protocol by Beaudoin et al. (Nature Protocols 2012; 7(9):1741-1754) with minor modifications. In brief, after trypsin digestion of hippocampi isolated from P1 mouse pups single cell suspensions was created by trituration and plated onto Biocoat™ poly-D-lysine coated 12-well plates (Cat#354470, BD Biosciences, San Jose, Calif.). 2 pups were used per well and cell suspensions were incubated for 10 minutes per well for a total of 6 wells. The serial incubation allowed for variation in cell densities applicable to different experiments but also contributed to the reduction in non-neuronal cells. […]
as §1
as §2, with “Complete homogenization was ensured by brief sonication using a Branson Sonifier 150, (Branson Ultrasonics Corporation, Danbury, Conn.).” left out
as §3

MMP-2 [5] = molecular target: T2, MMP-2 (Homo sapiens, UniProt P08253); test: SensoLyte Fluorimetric MMP-2 Activity Assay; assay type: biochemical; conditions: GM6001
T2 sequence (P08253 110-660): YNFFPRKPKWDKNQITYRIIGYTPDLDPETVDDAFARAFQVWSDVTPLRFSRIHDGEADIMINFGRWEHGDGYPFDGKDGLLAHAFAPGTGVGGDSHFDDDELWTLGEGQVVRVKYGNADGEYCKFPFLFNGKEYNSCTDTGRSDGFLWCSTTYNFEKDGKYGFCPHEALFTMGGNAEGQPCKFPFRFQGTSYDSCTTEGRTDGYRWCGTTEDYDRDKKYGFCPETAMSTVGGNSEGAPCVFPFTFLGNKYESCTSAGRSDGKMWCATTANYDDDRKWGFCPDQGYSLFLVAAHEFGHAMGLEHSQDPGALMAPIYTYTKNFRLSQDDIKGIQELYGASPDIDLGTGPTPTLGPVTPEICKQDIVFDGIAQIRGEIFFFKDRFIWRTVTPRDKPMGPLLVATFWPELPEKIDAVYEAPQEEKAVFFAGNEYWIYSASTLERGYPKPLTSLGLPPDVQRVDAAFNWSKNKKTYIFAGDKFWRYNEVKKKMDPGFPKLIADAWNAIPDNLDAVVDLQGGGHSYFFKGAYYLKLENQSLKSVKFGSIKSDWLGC
Source text: (§5) SensoLyte Fluorimetric MMP-2 Activity Assay Kit™ (Cat#71151) and SensoLyte Fluorimetric MMP-9 Activity Assay Kit™ (Cat#71155) were purchased from AnaSpec (Fremont, Calif.) and performed per manufacturer's instructions.

MMP-9 [6] = molecular target: T1, MMP-9; test: SensoLyte Fluorimetric MMP-9 Activity Assay; assay type: biochemical; conditions: GM6001
Source text: as §5
Target sequence in this assay (P14780 94-707, species assumed): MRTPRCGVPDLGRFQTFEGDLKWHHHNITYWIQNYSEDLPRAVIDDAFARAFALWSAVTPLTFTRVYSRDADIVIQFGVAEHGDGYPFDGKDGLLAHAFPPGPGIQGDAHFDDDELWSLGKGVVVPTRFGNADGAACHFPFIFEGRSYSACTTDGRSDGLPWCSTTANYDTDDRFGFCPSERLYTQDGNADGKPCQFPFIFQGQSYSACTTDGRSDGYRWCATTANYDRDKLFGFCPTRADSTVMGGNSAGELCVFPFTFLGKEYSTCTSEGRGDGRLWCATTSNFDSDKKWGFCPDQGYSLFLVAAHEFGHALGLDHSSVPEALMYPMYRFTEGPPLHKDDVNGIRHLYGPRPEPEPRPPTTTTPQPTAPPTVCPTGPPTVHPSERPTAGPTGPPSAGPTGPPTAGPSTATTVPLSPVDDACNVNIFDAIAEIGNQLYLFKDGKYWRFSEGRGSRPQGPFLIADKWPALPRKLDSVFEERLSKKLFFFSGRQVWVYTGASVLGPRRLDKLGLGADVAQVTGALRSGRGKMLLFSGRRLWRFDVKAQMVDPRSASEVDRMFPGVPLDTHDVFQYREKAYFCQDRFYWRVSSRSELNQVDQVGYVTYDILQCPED

[7] = Brain distribution of IV infra-red tagged TIMP3 post-TBI; assay type: in vivo, mouse; conditions: coronal section through impact site, n=2
Source text: FIGS. 2A-2B are graphical representations depicting various data relating to intravenous TIMP3 which preserves vulnerable neuronal populations in the hippocampus. (A) Coronal section through the impact site showing target coverage following IV administration of an infra-red tagged TIMP3. Spectrum bar indicates the intensity of the distribution. […] (B) NeuN staining of post-mitotic mature neurons 7 days post-TBI. Representative photomi-crographs of ipsilateral hippocampi from the 3 groups show NeuN staining in the granule cell layer (GCL) and Hilus (HL) of the dentate gyrus. Highlighted area panels show enhanced view of NeuN+ve hilar interneurons. Scale bar=100 μm. Lower panel, quantification of NeuN+ve neurons in the HL. n=4, 4 section per animal, mean±s.e.m. […] (C) DCX staining of neural progenitors/immature neurons 7 days post-TBI. Representative photomi-crographs of ipsilateral hippocampi from the 3 groups showing DCX staining in the subgranule zone (SGZ) of the dentate gyrus. Highlighted area panels show enhanced view of DCX positive immature neurons. […] Lower panel, quantification of DCX+ve neurons, n=4, 4 sections per animal, mean±s.e.m.
Subsequently, the inventors sought to determine the effects IV TIMP3 post-TBI on hippocampal neuronal populations. […] To further examine the effects of TIMP3 on neuronal cells the presence of neural progenitors was quantified by DCX staining. […]

hippocampal neurons = test: Sholl analysis of isolated hippocampal neurons; assay type: cell-based, mouse; conditions: shRNA vs scrambled sequence (SCR); 7 days post-transfection
Procedure: as §4
Sholl analysis on processed images of isolated hippocampal neurons was conducted using the Fiji derivation of Image J. (Hypertext Transfer Protocol://Fiji.sc.Fiji). […] After neurites had been traced the images were rendered as an analyzed skeleton and Sholl analysis was run on the image from the Analyze menu option.

mTOR = test: Real-time PCR of mTOR message in transfected hippocampal neurons; assay type: cell-based, mouse; conditions: 7 days post-transfection; during TIMP3 treatment; relative to actin
Procedure: Primary hippocampal neuron suspensions were transfected post-trituration and prior to plating. Neurons were ‘Nucleofected’ using a 4D-Nucleofector™ System (Lonza, Walkersville, Md.) in conjunction with a P3 Primary Cell 4D-Nucleofector® X Kit. In brief, 5×10^5 cells were nucleofected with 1.5 μg DNA resuspended in 100 μl of P3 solution after which cells were plated and cultured per normal protocol.
Plasmid vector pENN.AAV.U6.ShRLuc.CMV.eGFP.SV40 was provided by the Penn vector core, University of Pennsylvania, (Philadelphia, Pa.). mTOR shRNA sequence was chosen based on the previous publication by Jaworrski et al (43). Sequence ‘mTOR3071’ was chosen based on complete sequence identity between rat and mouse genes. Scrambled sequence (SCR) was designed using the online scramble design tool by genscript on the World Wide Web at genscript.com/ssl-bin/app/scramble. […]
Cells were lysed using 0.7 mL of QIAzol™ reagent (Qiagen, Valencia Calif.), followed by 15 min centrifugation at 12,000 g at 4° C. […] Quantitative real-time PCR measuring mouse-specific mTOR and Beta-actin (ACTB) genes using Taqman™ real time PCR was performed using the ABI ViiA 7 Real-Time PCR System™. Raw cycle threshold (Ct) numbers of amplified mTOR gene products were normalized to the housekeeping gene ACTB to control for cDNA input amounts. mRNA relative copy number was determined using the comparative Ct method.

Question: With “Recombinant TIMP3 (tissue inhibitor of matrix metalloproteinase-3) (from UniProt P35625 24-211)” as the molecule, how does the Sensolyte FRET assay of MMP-2 enzyme activity; TIMP3 concentration that gives full inhibition (MMP-2 [1]) read?
Answer: 1 µg/mL

Question: And the Sensolyte FRET assay of MMP-9 enzyme activity; TIMP3 concentration that gives full inhibition (MMP-9 [2])?
Answer: 1 µg/mL

Question: Which “phosphorylation of Akt (Ser473), western blot” value ([3]; 10 μM GM6001, 15 minutes) does the source give for `CNC(=O)[C@H](Cc1c[nH]c2ccccc12)NC(=O)[C@@H](CC(=O)NO)CC(C)C` [GM6001, reference compound] here?
Answer: did not result in increased phosphorylation

Question: And the “phosphorylation of S6RP (S235/236), western blot” value [4]?
Answer: did not result in increased phosphorylation

Question: What about the “MMP-2 inhibition (Sensolyte FRET assay)” value (MMP-2 [5]) of the same molecule?
Answer: complete MMP inhibition

Question: What about the “MMP-9 inhibition (Sensolyte FRET assay)” value (MMP-9 [6]) of the same molecule?
Answer: complete MMP inhibition

Question: With `CO[C@H]1C[C@@H]2CC[C@@H](C)[C@@](O)(O2)C(=O)C(=O)N2CCCC[C@H]2C(=O)O[C@H]([C@H](C)C[C@@H]2CC[C@@H](O)[C@H](OC)C2)CC(=O)[C@H](C)/C=C(\C)[C@@H](O)[C@@H](OC)C(=O)[C@H](C)C[C@H](C)/C=C/C=C/C=C/1C` [rapamycin, Rapamycin, reference compound] as the molecule, how does the “Akt (Ser473) phosphorylation with rapamycin, western blot” value ([3]; rapamycin pre-treatment with TIMP3) read?
Answer: not inhibited

B1: infra-red tagged TIMP3: Infra-red tagged version of recombinant TIMP3, obtained from Amgen Inc. (protein, UniProt P35625 24-211, looked up)
Metalloproteinase inhibitor 3: CTCSPSHPQDAFCNSDIVIRAKVVGKKLVKEGPFGTLVYTIKQMKMYRGFTKMPHVQYIHTEASESLCGLKLEVNKYQYLLTGRVYDGKMYTGLCNFVERWDQLTLSQRKGLNYRYHLGCNCKIKSCYYLPCFVTSKNECLWTDMLSNFGYPGYQSKHYACIRQKGGYCSWYRGWAPPDKSIINATDP
modifications: infra-red dye label
Question: For B1, which “penetrance into the ipsilateral hippocampus after IV administration” value [7] is on record?
Answer: penentrance of TIMP3 into the ipsilateral hippocampus

B2: shRNA against mTOR: shRNA sequence mTOR3071 (SEQ ID NO: 1) cloned into plasmid pENN.AAV.U6.ShRLuc.CMV.eGFP.SV40 (nucleic acid)
guide: GGAUCCGAGCCACATCCGTCCCTACTTCAAGAGAGTAGGGACGGATGTGGCTCTTTTTGAAUCC
Question: Which results are given for B2?
Answer: effect on TIMP3-promoted neurite outgrowth (Sholl analysis) (hippocampal neurons): significantly inhibited the effects of TIMP3 on neurite outgrowth; reduction of mTOR message levels compared to SCR (mTOR): approximately 50%
